Results on 1 molecule are retold here after patent US20240392013A1, “IL1RAP ANTIBODIES AND USES THEREOF” (STELEXIS THERAPEUTICS, LLC, priority 2021, published 2024).

In data set [1] the test system is IL1-induced downstream signaling (phospho-ERK, NFκB) in AML patient samples. Put plainly: IL1 signaling in AML patient samples, Western blot. In kind it is cell-based, human. The note with it: antibody 20 μg/ml, IL1β 100 ng/ml. The protocol: (§1) AML patient samples or cancer cells (AML, chronic myelogenous leukemia (CML), pancreatic, head and neck squamous cell carcinoma (HNSCC), bladder, non-small-cell lung carcinoma (NSCLC), colorectal and triple-negative breast cancer (TNBC)) were seeded in 6-well plates (5×10^5 cells/well) and incubated overnight at 37° C./5% CO2 in humified incubator. In experiments conducted in cancer cell lines, cells were washed 2× with PBS and serum-starved for 3 hours. Following, cells were treated with IL1RAP antibodies at concentration of 20 μg/ml and incubated for 1 h at 37° C./5% CO2 in humidified incubator. After 1 h, cells were treated with IL1β (Invivogen, cat: rcyec-hil1b), IL33 (Adipogen, cat: AG-40B-0160-C010) or IL36 cytokines (R@D, cat: 6836IL) at 100 ng/ml and incubated for 15 more minutes. Cells were harvested on ice after 1× wash with cold PBS and were centrifuged for 5 minutes at 5000 rpm at 4° C. Cells were then lysed with NP-40 buffer for 5 minutes on ice and centrifuged for 15 minutes at 15000 rpm at 4° C. Supernatants were collected and protein concentrations were determined by BCA (Thermofisher, Cat #PI23225). […] After 3× washes, ECL was applied (Thermofisher, Cat #32106) and proteins were detected after exposure to autoradioraphic films (Worldwide medical products, Cat #41101001) and protein intensity was quantitated using ImageJ software.

For data set [2], the system named is IL1-induced downstream signaling (phospho-NFκB) in K562 cells. Put plainly: IL1 signaling in CML (K562) cells, Western blot. The note with it: antibody 20 μg/ml, IL1β 100 ng/ml. The data set is classed as cell-based, human. The protocol:
as §1
In general terms: In western blotting, separated proteins are transferred to a membrane and probed.

In a further data set the test system is CML cells (K562). Put plainly: Proliferation of CML cells (K562), Cell-Titer Glo. The data set is classed as cell-based, human. The conditions noted are these: 333 nM, 3 days. As to the method: AML patient samples or cancer cells (AML and CML) were plated at density of 3×10^3 cells/well in two 96-well plates and incubated overnight at 37° C./5% CO2 in humidified incubator. The next day (Day 1) cells in one of the plates were treated with IL1RAP antibody at 10-150 μg/ml at a total volume of 100 μl. Plates were kept at 37° C./5% CO2 in humified for 3-6 days. Cells treated with vehicle or IgG served as controls and every treatment was conducted in triplicates. The second plate was treated on Day 1 with media and cell proliferation was measured on the same day by CellTiter-Glo (Promega, Cat #G7572). In more details, wells were mixed with equal volume (100 μl) of CellTiter-Glo and agitated for 2 minutes followed by 10 minutes incubation at room temperature in the dark. Luminescence signal was measured in Cytation™ (Biotek) plate reader. After 3-6 days, cell proliferation in the […] plates was measured separately in the same way.

The next data set deals with healthy control samples. Put plainly: Clonogenic capacity of healthy control samples. The note with it: 333 nM, two weeks. In kind it is cell-based, human. As to the method:
AML patient samples or healthy control samples (4000 cells) were washed and resuspended in 30 μl Iscove's Modified Dulbecco's Medium (IMDM) media supplemented with 2% FBS. Cells […] were mixed with 3 ml methylcellulose (MthoCult H4034 Optimum) supplemented with pen/strep or primocin (100 μg/ml) and IL1RAP antibodies (333 nM) and 1 ml were seeded in 35 mm dishes in duplicates. The dishes were incubated at 37° C./5% CO2 in humidified incubator for 14-16 days. Colonies were counted using inverted microscope.

In the next data set the test system is AML cells (THP-1). The experiment in a line: Expression of differentiation markers in AML cells, flow cytometry. The data set is classed as cell-based, human. The note with it: 150 μg/ml, 48 hours. As to the method:
Methods: AML cells (THP-1) were seeded at 0.5×10^6/well in 6-well plate and were treated with IL1RAP antibody or IgG control at 150 μg/ml for 48 hours. After 48 hours cells were collected, and expression of differentiation markers was monitored by flow cytometry. Cells were stained for CD14 (BD, cat: 325620) and CD15 (Thermo, cat: 17-01-59-42) differentiation markers and data were analyzed with FlowJo.
Background: In flow cytometry, cells or beads pass a laser one at a time.

Data set [3] deals with IL36γ-induced NFκB activity. Put plainly: HEKBlue-IL36 cell-based reporter assay. The note with it: HEKBlue-IL36, FIG. 22. As to the method: Inhibition by STLX2012 was measured by the HEKBlue-IL36 cell-based reporter assay. The HEK-Blue IL36 (Invivogen, Cat #hil36r-hkb) cell line was used to monitor NFκB activity upon stimulation with IL36γ cytokine. In this cell line, the secreted embryonic alkaline phosphatase reporter gene (SEAP) is inducibly expressed under the control of IFN-β minimal promoter fused to NFκB/AP-1. Specificity to IL36γ cytokine was achieved by blockage of TNF-α and IL1 response. Cells are maintained in the presence of zeocin (100 μg/ml) and blasticidin (10 μg/ml).
A general note: A reporter such as luciferase makes a cellular process visible.

A further data set deals with SK-MEL-5 cells. The experiment in a line: Jurkat-Lucia NFAT-CD16 ADCC reporter assay against SK-MEL-5 cells. In kind it is cell-based. The conditions noted are these: SK-MEL-5 target cells. The text has this: Methods: ADCC activity is mediated through binding of NK cell's CD16 receptors to the Fc region of antibodies. A Jurkat-Lucia NFAT-CD16 ADCC Reporter cell assay (Invivogen, Cat #jktl-nfat-cd16; https://www.invivogen.com/jurkat-lucia-nfat-adcc-adcp-cells) was used to analyze IL1RAP mAb STLX2012 for ADCC activity. Briefly, the Jurkat cell line was engineered to express the cell surface Fc receptor CD16A (FcγRIIIA) and the Lucia luciferase reporter gene. ADCC is triggered by CD16A cross-linking upon antigen-bound antibody binding at the surface of immune effector cells. Cells are maintained in the presence of zeocin (100 μg/ml) and blasticidin (10 μg/ml).
The STLX2012-DLE antibody was then analyzed for ADCC activity using the Jurkat-Lucia NFAT-CD16 ADCC Reporter cell assay, described in Example 11 above.

B1: 74804_12A21B: anti-IL1RAP mAb; VH SEQ ID NO:6, VL SEQ ID NO:23, κ light chain (antibody, V domains shown)
VH: QVQLLQSGAEVKKPGSSVKVSCKASGGTFSIYAIDWVRQAPGQGLEWMGGIIPIFGTANSAQKFQGRVTITADKSTSTAYMELSSLRSEDTAVYYCARNGATSDAFDMWGQGTMVTVSS
VL: EIVLTQSPGTLSLSPGERATLSCRASLSVSSNYLAWFQQRPGQAPRLLIHGVSRRATGIPDRFSGSGSGTDFTLTISRLEPEDFAVYYCQQYGSSPLTFGGGTKVEIK
modifications: 74804_12A21B VH and 74804_29D13A VH; 74804_12A21B VL
With B1, the “Inhibition of IL1 signaling (phosphorylation of ERK and NFκB)” value in data set [1] is given as “inhibited IL1 signaling in AML patient samples”. The “Inhibition of IL1 signaling (phosphorylation of NFκB)” value in data set [2] was “inhibited IL1 signaling in these CML (K562) cells”. Also, in the data set on CML cells (K562), the “Inhibition of cell proliferation” value is “inhibited cell proliferation”. The “Effect on clonogenic capacity of healthy control samples” value with healthy control samples is listed as “did not affect the clonogenic capacity of healthy control samples”. Also, in the data set with AML cells (THP-1), the “Expression of CD14 differentiation marker” value was “induced the expression” and the “Expression of CD15 differentiation marker” value is “induced the expression”. Further, the “Inhibition of IL36γ-induced NFκB activity” value in data set [3] is “inhibition of the IL36γ-induced NFκB activity in a dose-dependent manner”. In the data set with SK-MEL-5 cells, the “ADCC activity (reporter)” value is “showed ADCC activity”.
